The values that follow come from PMC5207133.

Data set [1] addresses T1, Ku70/80 heterodimer;DNA-PKcs;APLF (human (HeLa cells);human (HeLa …, UniProt P12956;P13010;P78527;Q8IW19 1-609;1-732;1-4128;1-511, ||)). Particulars: protein: native;native;recombinant; tags: ;;GST removed by PreScission protease; copies: 1;1;1;1; label: 3'-FAM on strand 1; blunt.
The target in data set [2] is T2, Ku70/80 heterodimer (human (HeLa cells), UniProt P12956;P13010 1-609;1-732). Particulars: protein: native; copies: 1;1; label: 3'-FAM on strand 1; blunt.
In data set [3] the target is T3, Ku70/80 heterodimer;APLF (human (HeLa cells);human, UniProt P12956;P13010;Q8IW19 1-609;1-732;1-511, |). Particulars: protein: native;recombinant, tags: ;GST removed by PreScission protease, copies: 1;1;1, blunt.
Data set [4] deals with T4, Ku70/80 heterodimer;DNA-PKcs (human (HeLa cells);human (HeLa cells), UniProt P12956;P13010;P78527 1-609;1-732;1-4128, |). Conditions: protein: native;native, tags: ;, copies: 1;1;1, blunt.
The target of data set [5] is T5, APLF (human, UniProt Q8IW19 1-511). Particulars: protein: recombinant; tags: GST removed by PreScission protease; label: 3'-FAM on strand 1; blunt.
The target of data set [6] is T1, Ku70/80 heterodimer;DNA-PKcs;APLF. Particulars: protein: native;native;recombinant; tags: ;;GST removed by PreScission protease; copies: 1;1;1;1; 20-bp duplex with stem-loop at one end and 5-nt overhang at the other.
Data set [7] concerns the target T3, Ku70/80 heterodimer;APLF. Conditions: protein: native;recombinant; tags: ;GST removed by PreScission protease; copies: 1;1;1; 20-bp duplex with stem-loop at one end and 5-nt overhang at the other.
In data set [8] the target is XRCC4-DNA ligase IV (X4L4) (human, UniProt Q13426;P49917 1-336;1-911). Particulars: protein: recombinant; chain copies: 2;1; 20-bp duplex with stem-loop at one end and 5-nt overhang at the other.
The target of data set [9] is T2, Ku70/80 heterodimer. Conditions: protein: native; copies: 1;1; 20-bp duplex with stem-loop at one end and 5-nt overhang at the other.
The target in data set [10] is Ku70/80 heterodimer;XRCC4-DNA ligase IV (X4L4) (human (HeLa cells);human, UniProt P12956;P13010;Q13426;P49917 1-609;1-732;1-336;1-911, |). Particulars: protein: native;recombinant; tags: ;; copies: 1;1;2;1; 20-bp duplex with stem-loop at one end and 5-nt overhang at the other.
Data set [11] concerns the target T5, APLF. Particulars: protein: recombinant; tags: GST removed by PreScission protease; 20-bp duplex with stem-loop at one end and 5-nt overhang at the other.
Data set [12] addresses T6, Ku70/80 heterodimer;XRCC4-DNA ligase IV (X4L4);APLF (human (HeLa cells);human;human, UniProt P12956;P13010;Q13426;P49917;Q8IW19 1-609;1-732;1-336;1-911;1-511, ||). Conditions: protein: native;recombinant;recombinant; tags: ;;GST removed by PreScission protease; copies: 1;1;2;1;1; 20-bp duplex with stem-loop at one end and 5-nt overhang at the other.
The target of data set [13] is T4, Ku70/80 heterodimer;DNA-PKcs. Conditions: protein: native;native; tags: ;; copies: 1;1;1; 20-bp duplex with stem-loop at one end and 5-nt overhang at the other.
Data set [14] concerns the target T6, Ku70/80 heterodimer;XRCC4-DNA ligase IV …. Particulars: protein: native;recombinant;recombinant; tags: ;;GST removed by PreScission protease; copies: 1;1;2;1;1; two stem-loop duplexes (strands 1+2, 3+4) annealing via complementary 10-nt A/T overhangs.
Data set [15] concerns the target T2, Ku70/80 heterodimer. Conditions: protein: native; copies: 1;1; label: 3'-FAM on strand 2; blunt.
The target in data set [16] is T1, Ku70/80 heterodimer;DNA-PKcs;APLF. Conditions: protein: native;native;recombinant; tags: ;;GST removed by PreScission protease; copies: 1;1;1;1; label: 3'-FAM on strand 2; blunt.

Read-outs that look alike come from different tables or passages of the source.

T3 sequence (P12956 whole entry, chain 1 of 3): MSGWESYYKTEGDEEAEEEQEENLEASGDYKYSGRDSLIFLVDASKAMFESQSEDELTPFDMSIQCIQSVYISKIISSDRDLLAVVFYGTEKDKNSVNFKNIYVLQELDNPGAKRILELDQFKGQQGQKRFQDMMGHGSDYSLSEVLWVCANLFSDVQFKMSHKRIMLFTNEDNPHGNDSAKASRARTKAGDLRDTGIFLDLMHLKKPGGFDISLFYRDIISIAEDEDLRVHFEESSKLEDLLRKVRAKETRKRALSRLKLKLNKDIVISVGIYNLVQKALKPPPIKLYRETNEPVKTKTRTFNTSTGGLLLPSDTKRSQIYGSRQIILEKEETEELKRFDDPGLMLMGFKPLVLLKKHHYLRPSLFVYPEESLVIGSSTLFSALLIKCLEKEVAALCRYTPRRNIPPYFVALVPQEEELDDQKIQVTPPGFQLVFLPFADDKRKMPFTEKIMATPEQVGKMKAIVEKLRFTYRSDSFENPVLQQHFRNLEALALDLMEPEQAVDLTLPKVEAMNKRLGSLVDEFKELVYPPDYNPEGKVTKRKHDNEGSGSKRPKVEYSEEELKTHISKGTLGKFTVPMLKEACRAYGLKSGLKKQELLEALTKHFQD
T3 sequence (P13010 whole entry, chain 2 of 3): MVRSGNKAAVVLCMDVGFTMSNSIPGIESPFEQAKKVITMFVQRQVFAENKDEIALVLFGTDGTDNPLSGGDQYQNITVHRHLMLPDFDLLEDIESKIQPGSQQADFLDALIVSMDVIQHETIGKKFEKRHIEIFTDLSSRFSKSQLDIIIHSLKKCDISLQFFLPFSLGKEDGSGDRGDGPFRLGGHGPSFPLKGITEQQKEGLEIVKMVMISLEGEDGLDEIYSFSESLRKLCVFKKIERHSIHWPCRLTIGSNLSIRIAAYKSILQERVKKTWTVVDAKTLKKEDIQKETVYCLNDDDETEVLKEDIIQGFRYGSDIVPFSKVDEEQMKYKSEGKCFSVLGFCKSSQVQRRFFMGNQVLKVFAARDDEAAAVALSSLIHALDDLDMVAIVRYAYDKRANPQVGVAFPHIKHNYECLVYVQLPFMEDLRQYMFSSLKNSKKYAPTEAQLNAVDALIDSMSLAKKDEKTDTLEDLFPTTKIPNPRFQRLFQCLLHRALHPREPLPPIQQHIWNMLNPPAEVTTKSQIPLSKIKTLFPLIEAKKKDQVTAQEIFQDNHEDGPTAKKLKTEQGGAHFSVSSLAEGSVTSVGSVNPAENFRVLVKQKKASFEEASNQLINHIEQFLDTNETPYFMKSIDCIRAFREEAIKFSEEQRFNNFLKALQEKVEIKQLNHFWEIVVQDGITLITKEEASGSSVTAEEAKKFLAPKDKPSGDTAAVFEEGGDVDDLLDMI
T3 sequence (Q8IW19 whole entry, chain 3 of 3): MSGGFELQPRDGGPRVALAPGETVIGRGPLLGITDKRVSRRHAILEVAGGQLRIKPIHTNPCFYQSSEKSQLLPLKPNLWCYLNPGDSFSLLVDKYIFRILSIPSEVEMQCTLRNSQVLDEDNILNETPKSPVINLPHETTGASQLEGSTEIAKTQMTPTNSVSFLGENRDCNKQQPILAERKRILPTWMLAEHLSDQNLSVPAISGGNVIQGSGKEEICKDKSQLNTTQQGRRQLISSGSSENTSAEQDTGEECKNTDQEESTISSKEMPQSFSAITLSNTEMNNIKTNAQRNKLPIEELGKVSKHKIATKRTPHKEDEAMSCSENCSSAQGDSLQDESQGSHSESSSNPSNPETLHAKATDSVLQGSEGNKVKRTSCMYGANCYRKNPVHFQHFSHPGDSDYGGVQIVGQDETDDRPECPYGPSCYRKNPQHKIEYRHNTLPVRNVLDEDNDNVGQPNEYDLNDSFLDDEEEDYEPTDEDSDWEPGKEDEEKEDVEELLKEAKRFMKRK
T2 sequence (P12956 whole entry, chain 1 of 2): as the sequence (P12956 whole entry, chain 1 of 3) above
T2 sequence (P13010 whole entry, chain 2 of 2): as the sequence (P13010 whole entry, chain 2 of 3) above
Chain of Ku70/80 heterodimer;XRCC4-DNA ligase IV (X4L4) (P12956 whole entry, chain 1 of 4): as the sequence (P12956 whole entry, chain 1 of 3) above
Chain of Ku70/80 heterodimer;XRCC4-DNA ligase IV (X4L4) (P13010 whole entry, chain 2 of 4): as the sequence (P13010 whole entry, chain 2 of 3) above
Chain of Ku70/80 heterodimer;XRCC4-DNA ligase IV (X4L4) (Q13426 whole entry, chain 3 of 4): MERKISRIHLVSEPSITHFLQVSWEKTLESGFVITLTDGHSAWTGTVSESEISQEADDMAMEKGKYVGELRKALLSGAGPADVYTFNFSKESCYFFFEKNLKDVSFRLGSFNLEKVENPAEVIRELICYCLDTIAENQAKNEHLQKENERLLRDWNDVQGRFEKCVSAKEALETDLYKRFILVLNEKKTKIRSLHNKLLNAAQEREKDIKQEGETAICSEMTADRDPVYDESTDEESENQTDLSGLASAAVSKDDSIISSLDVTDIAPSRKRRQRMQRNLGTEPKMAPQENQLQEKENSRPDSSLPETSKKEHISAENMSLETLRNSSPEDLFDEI
Chain of Ku70/80 heterodimer;XRCC4-DNA ligase IV (X4L4) (P49917 whole entry, chain 4 of 4): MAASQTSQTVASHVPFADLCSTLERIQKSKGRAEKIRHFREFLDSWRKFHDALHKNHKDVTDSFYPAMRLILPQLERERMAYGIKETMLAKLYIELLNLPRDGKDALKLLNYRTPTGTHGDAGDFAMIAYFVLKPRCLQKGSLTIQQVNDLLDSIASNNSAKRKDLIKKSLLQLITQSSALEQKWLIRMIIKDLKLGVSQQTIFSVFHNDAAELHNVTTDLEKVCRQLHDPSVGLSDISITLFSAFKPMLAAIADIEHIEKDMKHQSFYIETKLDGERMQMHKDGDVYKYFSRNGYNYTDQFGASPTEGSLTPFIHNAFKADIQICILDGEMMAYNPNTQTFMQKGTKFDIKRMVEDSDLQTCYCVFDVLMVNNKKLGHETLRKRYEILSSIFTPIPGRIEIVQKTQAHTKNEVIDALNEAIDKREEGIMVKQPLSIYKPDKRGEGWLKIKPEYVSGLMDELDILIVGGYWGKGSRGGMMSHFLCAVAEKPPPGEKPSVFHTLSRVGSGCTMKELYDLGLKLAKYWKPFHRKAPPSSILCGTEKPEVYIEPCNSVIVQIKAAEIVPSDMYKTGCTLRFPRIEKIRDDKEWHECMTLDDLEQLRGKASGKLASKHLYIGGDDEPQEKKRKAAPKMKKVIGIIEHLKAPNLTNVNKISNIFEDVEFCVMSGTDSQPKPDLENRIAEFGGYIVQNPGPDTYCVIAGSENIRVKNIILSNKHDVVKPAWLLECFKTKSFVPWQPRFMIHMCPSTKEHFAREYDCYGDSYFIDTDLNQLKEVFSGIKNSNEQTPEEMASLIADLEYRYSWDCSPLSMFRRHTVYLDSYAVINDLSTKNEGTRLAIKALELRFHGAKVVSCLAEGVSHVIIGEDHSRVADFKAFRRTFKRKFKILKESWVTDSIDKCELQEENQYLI
Chain of XRCC4-DNA ligase IV (X4L4) (Q13426 whole entry, chain 1 of 2): as the sequence (Q13426 whole entry, chain 3 of 4) above
Chain of XRCC4-DNA ligase IV (X4L4) (P49917 whole entry, chain 2 of 2): as the sequence (P49917 whole entry, chain 4 of 4) above

B1: 40bpDNA 3'-FAM (dsDNA)
DNA 1: GGATACACAACAGACCGCAACACTCAGATTACTTTTCGCC
DNA 2: GGCGAAAAGTAATCTGAGTGTTGCGGTCTGTTGTGTATCC
On to B1, for which the binding result in data set [1] is listed as “binds”; with Ku70/80 heterodimer [2] it was “binds”; with Ku70/80 heterodimer;APLF [3] (label: 3'-FAM on strand 1) it was “binds”; in [4] (label: 3'-FAM on strand 1) it was “binds”; in the data set with APLF [5], “no binding”.

B2: 20bpDNA (stem-loop A) (structured_DNA)
DNA 1: CCCACCCAAAAATCAATAATCGACCCTTTCGACCCGCGC
DNA 2: GCGCGGGTTATTTGATTTTTGGGTGGGGTCGA
Consider B2, for which the binding result in data set [6] is recorded as “binds”; with Ku70/80 heterodimer;APLF [7], “binds”; in data set [8] it was “no binding”; in the data set with Ku70/80 heterodimer [9] it was “binds”; in data set [10] it was “binds”; with APLF [11], “no binding”. Also, the binding result in data set [12] and in data set [13] was “binds” in each case.

B3: 20bpDNA-10nt (stem-loop B plus complementary stem-loop) (structured_DNA)
DNA 1: CCCACCCAAAAATCAATAATCGACCCTTTCGACCCGCGC
DNA 2: GCGCGGGTTATTTGATTTTTGGGTGGGAAAAAAAAAA
DNA 3: TTTTTTTTTTCCCACCCAAAAATCAAATAATCGACCCTTTCGACCCGCGC
DNA 4: GCGCGGGTTATTTGATTTTTGGGTGGG
Regarding B3, the binding result in data set [14] is “binds”.

B4: 25bpDNA 3'-FAM (dsDNA)
DNA 1: AGCATTGACTGGCATCGTAGCATCC
DNA 2: GGATGCTACGATGCCAGTCAATGCT
On to B4, for which the binding result (with Ku70/80 heterodimer [15]; in the data set with Ku70/80 heterodimer;APLF [3] (label: 3'-FAM on strand 2); in data set [4] (label: 3'-FAM on strand 2); in data set [16]) was “binds” throughout.
